These results are taken from the supplement of paper PMC12764529.

Data set [1] is described as follows: folding stability dG unfold from trypsin proteolysis; higher = more stable. In short, it runs like this: (§1)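 How resistant each design was to proteolysis was captured as K50, inferred by Bayesian fitting of sequencing counts. Unfolding free energy was then derived relative to a sequence-predicted unfolded-state K50 and a shared folded-state K50, per protease or combined. Digestion used trypsin and chymotrypsin at 11 threefold-diluted concentrations plus a no-protease condition, on mini-proteins under 80 residues without cysteine in a PA-tagged cDNA display construct. Designs were kept only when AlphaFold2 dimer inter-PAE was above 15.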

The nature of data set [2]: folding stability dG unfold from chymotrypsin proteolysis; higher = more stable. Put shortly:
as §1

A short description of data set [3]: folding stability dG unfold (combined trypsin and chymotrypsin); higher = more stable. In short, it runs like this:
as §1

± gives the half width of the 95% confidence interval.

For the sequence “SAGMYMVTITWEYPNGWTFEFMVFVRGPNPEEAREQVDEAAREIFEQRDHPIKDVKVDVQPMPPGQEISAGG [r19_335_TrROS]”, the “folding stability dG unfold” value turned out to be 1.96 ± 0.064 kcal/mol in data set [1], 3.18 ± 0.054 kcal/mol in data set [2] and 2.84 ± 0.23 kcal/mol in data set [3].
Regarding “SAGMYSETLLEEREYPDGTKEKLYRITKPGGVEELRLVREPLTFDPNNGGPGRKEEVKTAKPDEEIELESAG [r5_122_JUSTAS]”, the “folding stability dG unfold” value in data set [1] worked out at 0.721 ± 0.026 kcal/mol; in data set [2] it was 1.12 ± 0.14 kcal/mol; in data set [3] it was 1.03 ± 0.1 kcal/mol.
With “SAGNIKIEVEELGPGWYVIKVEIPYDSPEQMLDMIKDIIRDFFGEPVKIDEVEIDPDEGWIEKTIRIPLSAG [r5_810_TrROS]”, the “folding stability dG unfold” value came to 1.58 ± 0.067 kcal/mol in data set [1], 1.64 ± 0.07 kcal/mol in data set [2] and 1.67 ± 0.12 kcal/mol in data set [3].
Taken in the same sequence, the figures for “SAGNIQIEPTDGKWRIRITYWMPDPDEITPDTFKNLLRNLGLPIKDIDIEPEPNPNGQRYVTAEIWIPVSAG [r5_922_TrROS]” were 2.84 ± 0.043 kcal/mol, 3.34 ± 0.071 kcal/mol and 3.23 ± 0.059 kcal/mol.
For “SAGNKVEIMLMVPMKPDPDGEPEIDPQMIREIAKAAGAEGRVEDVDIQPMPDYYMIRVRLPGKEIWIMSAGG [r19_398_TrROS]” the same measures were 1.46 ± 0.031 kcal/mol, 1.1 ± 0.13 kcal/mol and 1.38 ± 0.11 kcal/mol.
For “SAGNPPVTITITINPFRHGDEPMYHVKIKNPGGKEREIPFPPDEFKEQIENEFPNIDEIEVEPMRLPPGSAG [r5_25_TrROS]” the same measures were 0.207 ± 0.14 kcal/mol, 0.615 ± 0.29 kcal/mol and 0.408 ± 0.49 kcal/mol.
As to “SAGPAVVIPLPLDPEKWSPEEILEAAIKLAEEAYKAGLPGSVTLLVPVPEKPLLITIDPKTGKITVDPSAGG [r19_204_TrMRF]”, the “folding stability dG unfold” value turned out to be 1.49 ± 0.083 kcal/mol in data set [1], 1.73 ± 0.066 kcal/mol in data set [2] and 1.63 ± 0.072 kcal/mol in data set [3].
For “SAGPEITREFVSYDPETGLRYFEYTLINKKNGKEVKKVKVGYSLYDLASGTERPLPEEELKKRAEEALKSAG [r5_909_JUSTAS]” the same measures were -0.118 ± 0.13 kcal/mol, 0.433 ± 0.16 kcal/mol and 0.24 ± 0.16 kcal/mol.
Taken in the same sequence, the figures for “SAGPEPDWVYIKAKVDKGGIKIEWYNPDGPWEFKLPDGEEIYIFIPPGGSPEDMLDEFKNFAKELADKSAGG [r19_170_TrROS]” were 1.41 ± 0.22 kcal/mol, 2.1 ± 0.21 kcal/mol and 2.18 ± 0.71 kcal/mol.
Taken in the same sequence, the figures for “SAGPGHELKIDIERDPGNGIIKLSITYPNGIKYEMLIFRNPDNGKWFIFINIERDPGRIKIDIGIFPLSAGG [r19_394_TrROS]” were 3.28 ± 0.083 kcal/mol, 5.05 ± 0.13 kcal/mol and 4.7 ± 0.2 kcal/mol.
Take “SAGPIKEKTITFPNGMRAKITDIQVGPPPDGEPLIKLKVKVEMWQPKRDPDGKQDGWQPMKMEMTLIIPSAG [r5_476_TrROS]”: the “folding stability dG unfold” value is 2.68 ± 0.18 kcal/mol in data set [1], 3.91 ± 0.058 kcal/mol in data set [2] and 3.51 ± 0.36 kcal/mol in data set [3].
With “SAGPIKIVVNPDGMLIMVFPHPDGSLMVMIFTFKPNPKNGKRRFEMEMIMIDPDPGDPHVMTMRFEIPPSAG [r5_424_TrROS]”, the “folding stability dG unfold” value in data set [1] stood at 3.37 ± 0.15 kcal/mol; in data set [2] it was 4.88 ± 0.09 kcal/mol; in data set [3], 4.08 ± 0.18 kcal/mol.
For “SAGPKAEIINKNGKKISFSAKNIKITSYPEKGILTGIIPKKNKKIEIKVDNNKITLIVYDGGKYKEFPISAG [r5_786_TrMRF]” the same measures were 2.07 ± 0.071 kcal/mol, 3.97 ± 0.22 kcal/mol and 2.21 ± 0.55 kcal/mol.
Taken in the same sequence, the figures for “SAGPKIELEVDPENPNVARAKVIDPANGEEIDEVEVPVTTLPDGTVLVPAKIKYKGSGKTLELPFTVEGSAG [r5_610_TrMRF]” were -0.4 ± 0.44 kcal/mol, 0.133 ± 0.26 kcal/mol and -0.126 ± 0.28 kcal/mol.
As to “SAGPKTITIWFRSPEWIRKLAKELGFEIKKVKRTGDYWSVEFTREGGKNIEIHIPDDALKELGFDLDDISAG [r5_12_TrROS]”, the figures for the “folding stability dG unfold” value in data set [1], in data set [2] and in data set [3] were 2.3 ± 0.044 kcal/mol, 2.28 ± 0.089 kcal/mol and 2.25 ± 0.057 kcal/mol, respectively.
Taken in the same sequence, the figures for “SAGPNFKIEIVPNPNGMEPIATIRPPGRTIVIYRNSNGGYHVQRFDPNNGKPVKQFNMPAEEIIKEILSAGG [r19_188_TrROS]” were 0.348 ± 0.1 kcal/mol, 0.655 ± 0.34 kcal/mol and 0.551 ± 0.19 kcal/mol.
For “SAGPPDWKPIAEFEYNIPMPPGETASEIENEILERIRPQGIKYVTIPVQYDPENGWIQVDVEIWVPPGASAG [r5_924_TrROS]”, the “folding stability dG unfold” value in data set [1] stood at 0.898 ± 0.03 kcal/mol; in data set [2], 0.849 ± 0.16 kcal/mol; in data set [3] it was 0.891 ± 0.11 kcal/mol.
Taken in the same sequence, the figures for “SAGPPEFELVGEFEAEAPGGVPVRVRVIRLPGGDVLVVVTHPDDTVTLGFIPAETGEWHLALSFPADVLSAG [r5_750_TrMRF]” were 2.82 ± 0.057 kcal/mol, 2.369 ± 0.014 kcal/mol and 2.58 ± 0.057 kcal/mol.
